# Test results: publication PMC6630525 (Molecules, 2019)
# Several values for one entry are separate records, joined by “and”; a condition that tells them apart may be missing. Identical values can stand only once.
# Experiments:
# [1] = biological target: the molecule itself; assay: AUC; sedimentation velocity, 40,000 rpm, 20 °C, samples diluted in SEC buffer to OD280 0.5; c(s) distribution and non-interacting species model
# [2] = biological target: the molecule itself; assay: SEC; analytical gel filtration, Superdex 200 10/300 GL, 4 °C, 20 mM Tris-HCl with 0.2, 0.5 or 2.0 M NaCl after dialysis into the same buffer
# [3] = biological target: the molecule itself; assay: SAXS; ESRF BM29, samples at 5, 3 and 2 mg/mL, 10 °C; molecular mass estimated with ATSAS
Protein,stoichiometry N [1],also measured
"AtNRP2 NT/CT (AtNRP2 residues 14-223) (domain or fragment, Arabidopsis thaliana, UniProt Q8LC68-2 14-223, looked up, NAP1-related protein 2 (AtNRP2), Arabidopsis thaliana, residues 14-223 (first 13 and last 35 residues removed), in pGEX-6P-1 between BamHI and SalI; A few vector residues may remain at the N-terminus after PreScission cleavage (surmise); Heated at 40 °C for 10 min before crystallization; also called AtNRP2_(14-223); GST-AtNRP2_(14-223); not shown: GST, N-terminal, cleaved) ENVEQIDAELVLSIEKLQEIQDDLEKINEKASDEVLEVEQKYNVIRKPVYDKRNEIIKTIPDFWLTAFLSHPALGELLTEEDQKIFKYLSSLDVEDAKDVKSGYSITFSFNPNPFFEDGKLTKTFTFLEEGTTKITATPIKWKEGKGLANGVNHEKNGNKRALPEESFFTWFSDAQHKEDVEDEMQDEQVADIIKEDLWPNPLTYFNNDA",2,
"full-length Arabidopsis thaliana NAP1-Related Protein 1 (AtNRP1-His) (natural protein, UniProt Q9CA59 1-256, looked up, NAP1-related protein 1 (AtNRP1), Arabidopsis thaliana; full-length ORF optimised for bacterial expression (Genscript) in pET22b(+) between NdeI and XhoI; also called full-length AtNRP1; not shown: His6, C-terminal, kept) MVADKSKKSKIEEKGEEENLEQIDAELVLSIEKLQEIQDDLEKINEKASDEVLEVEQKYNVIRKPVYDKRNEVIQSIPGFWMTAFLSHPALGDLLTEEDQKIFKYLNSLEVEDAKDVKSGYSITFHFTSNPFFEDAKLTKTFTFLEEGTTKITATPIKWKEGKGLPNGVNHDDKKGNKRALPEESFFTWFTDAQHKEDAGDEIHDEVADIIKEDLWSNPLTYFNNDADEEDFDGDDDGDEEGEEDDDDEEEEDGEE",,binding result [2]: binds
"full-length Arabidopsis thaliana NAP1-Related Protein 2 (AtNRP2-His) (natural protein, UniProt Q8LC68-2 1-256, looked up, NAP1-related protein 2 (AtNRP2), Arabidopsis thaliana; full-length ORF optimised for bacterial expression (Genscript) in pET22b(+) between NdeI and XhoI; Predominantly a dimer in solution; tetramer and a higher species also seen by AUC; also called full-length AtNRP2; not shown: His6, C-terminal, kept) MVTDKSKKAKTEEENVEQIDAELVLSIEKLQEIQDDLEKINEKASDEVLEVEQKYNVIRKPVYDKRNEIIKTIPDFWLTAFLSHPALGELLTEEDQKIFKYLSSLDVEDAKDVKSGYSITFSFNPNPFFEDGKLTKTFTFLEEGTTKITATPIKWKEGKGLANGVNHEKNGNKRALPEESFFTWFSDAQHKEDVEDEMQDEQVADIIKEDLWPNPLTYFNNDADEEDFDGDDDGDEEEKEGDSDEDDDEEDEVGEE",2 and 4,
"AtNRP1 NT/CT (AtNRP1 residues 14-226) (domain or fragment, Arabidopsis thaliana, UniProt Q9CA59 14-226, looked up, NAP1-related protein 1 (AtNRP1), Arabidopsis thaliana, residues 14-226, in pGEX-6P-1 between BamHI and SalI; A few vector residues may remain at the N-terminus after PreScission cleavage (surmise); also called AtNRP1_(14-226); GST-AtNRP1_(14-226); not shown: GST, N-terminal, cleaved) KGEEENLEQIDAELVLSIEKLQEIQDDLEKINEKASDEVLEVEQKYNVIRKPVYDKRNEVIQSIPGFWMTAFLSHPALGDLLTEEDQKIFKYLNSLEVEDAKDVKSGYSITFHFTSNPFFEDAKLTKTFTFLEEGTTKITATPIKWKEGKGLPNGVNHDDKKGNKRALPEESFFTWFTDAQHKEDAGDEIHDEVADIIKEDLWSNPLTYFNND",,stoichiometry N [3]: 2
